In assay [1] the target is ACE2, Q9BYF1. Description: inhibitor screening kit; SARS-CoV-2 Spike:ACE2 (Example 3 assay).
The target of assay [2] is ACE2, Q9BYF1. The experiment in a line: inhibitor screening kit; ACE2:SARS-CoV-2 Spike (Example 4 assay).
Assay [3] has as its target SARS-CoV-2 Spike-Fc, Gamma (P1/Brazil) variant (SARS-CoV-2), P0DTC2.
For assay [4], the target named is SARS-CoV-2 Spike-Fc, Alpha (B1.1.7/United Kingdom) variant (SARS-CoV-2), P0DTC2.
In assay [5] the target is SARS-CoV-2 Spike-Fc, Beta (B1.351/South Africa) variant (SARS-CoV-2), P0DTC2.
Assay [6] concerns the target SARS-CoV-2 Spike-Fc, Epsilon (B1429) variant (SARS-CoV-2), P0DTC2.
Assay [7] addresses SARS-CoV-2 Spike-Fc, Delta (B1 617 2/India) variant (SARS-CoV-2), P0DTC2.

A value given as a limit tells only on which side of the number the result lay.

Chain of ACE2, Q9BYF1 (Q9BYF1 18-740 limits assumed): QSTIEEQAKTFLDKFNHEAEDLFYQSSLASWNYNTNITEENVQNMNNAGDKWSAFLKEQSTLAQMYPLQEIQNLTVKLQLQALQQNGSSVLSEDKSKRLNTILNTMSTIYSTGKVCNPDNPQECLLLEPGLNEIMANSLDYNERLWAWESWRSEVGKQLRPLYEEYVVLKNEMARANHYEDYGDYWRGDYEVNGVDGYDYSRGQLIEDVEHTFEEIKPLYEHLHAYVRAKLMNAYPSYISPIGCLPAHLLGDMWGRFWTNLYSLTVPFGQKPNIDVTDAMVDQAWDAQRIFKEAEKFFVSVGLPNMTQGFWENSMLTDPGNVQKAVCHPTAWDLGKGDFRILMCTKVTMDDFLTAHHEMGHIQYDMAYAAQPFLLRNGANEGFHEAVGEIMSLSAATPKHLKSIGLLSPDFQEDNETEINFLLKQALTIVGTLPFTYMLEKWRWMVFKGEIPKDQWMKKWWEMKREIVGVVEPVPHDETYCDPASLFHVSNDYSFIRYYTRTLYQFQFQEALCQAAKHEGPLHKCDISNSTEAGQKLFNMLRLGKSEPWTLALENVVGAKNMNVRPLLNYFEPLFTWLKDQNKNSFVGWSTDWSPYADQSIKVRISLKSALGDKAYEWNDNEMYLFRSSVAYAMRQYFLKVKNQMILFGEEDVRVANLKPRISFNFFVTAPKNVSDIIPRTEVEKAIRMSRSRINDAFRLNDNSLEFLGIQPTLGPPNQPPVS

As usually defined, the IC50 is the midpoint of a concentration-inhibition curve. Read a low IC50 as greater potency in that assay. Consider KVGGNYNYKLWRALWRLWRSLWRLLWK (modifications not checked) [Seq13 (LNCOV-11)], for which the IC50 in assay [1] and in assay [2] was over 10000 nM throughout.

For the molecule VEGFNCYFLWRALWRLWRSLWRLLWK (modifications not checked) [Seq18 (LNCOV-16)], the half-maximal inhibitory concentration (IC50) in assay [1] and in assay [2] was over 10000 nM each time.

For GNYNYLYRLLWRALWRLWRSLWRLLWK (modifications not checked) [seq14 (LNCOV-12)], the IC50 in assay [1] and in assay [2] was over 10000 nM each time.

KTFLDKFNHEAEDLFPGPKWSAFLKEQSTLAQMYG (modifications not checked) [Seq28 (LNCOV-20)]: the IC50 in assay [3] is 41.7 nM; in assay [4], 24.6 nM; in assay [5], 31.5 nM; in assay [6] it was 28.8 nM; in assay [7] it was 29.2 nM.

With EQAKTFLDKFNHEAEDLFLWRALWRLWRSLWRLLWK (modifications not checked) [Seq33 (LNCOV-18)], the IC50 in assay [3] stood at 20.2 nM; in assay [4], 17.8 nM; in assay [5] it was 28.8 nM; in assay [6], 31.4 nM; in assay [7] it was 25.7 nM.

Source of the values: patent publication US20230304010A1, “COMPOSITIONS AND METHODS FOR TREATING VIRAL INFECTIONS” (priority 2020, published 2023).
